Key:
[1] = target: High Capacity NeutrAvidin Agarose Resin (UniProt P02701); assay: pull-down on NeutrAvidin Agarose resin, 1 uM protein, 2 hrs at 4 C; bound fraction from A280 of flow-through and wash
[2] = target: High Capacity NeutrAvidin Agarose Resin (UniProt P02701); assay: pull-down on NeutrAvidin Agarose resin, SDS-PAGE of the fractions

Sequence of UniProt P02701 (P02701 25-152): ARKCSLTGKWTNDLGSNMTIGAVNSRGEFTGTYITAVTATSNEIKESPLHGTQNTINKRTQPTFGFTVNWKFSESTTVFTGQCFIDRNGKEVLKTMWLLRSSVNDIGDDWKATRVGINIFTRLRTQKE

| Substance | binding efficiency (percent of protein bound to resin) [1] [%] | percent unbound [2] [%] |
| --- | --- | --- |
| unlabeled mRuby3 | 10 | – |
| IPL biotin-labeled mRuby3 | 65 | 35 |

Source: patent US20220056072A1
